Source: the supplement of paper PMC9112550, “Optimization of the antimicrobial peptide Bac7 by deep mutational scanning” (BMC Biology, 2022)

These sequences were tested on Escherichia coli TOP10 (assay: shrunken log2 fold change of peptide-encoding DNA abundance (4.5 h post-induction vs induction); higher = less antimicrobial activity (less host growth inhibition)). Conditions: time post-induction: 4.5 h; library: site-saturation at positions 5, 18, 19, 20.
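Note: peptides expressed intracellularly from a pBAD plasmid library in pooled LB shake-flask culture, induced with 0.3% L-arabinose, DNA abundance read by NGS, three biological replicates, DESeq2 with apeglm shrinkage.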

Sequence | shrunken log2 fold change
RRIRGRPPRLPRPRPRPDHAPRP | 0.217
RRIRDRPPRLPRPRPRPHGAPRP | 0.211
RRIRPRPPRLPRPRPRPTNLPRP | -0.107
RRIRNRPPRLPRPRPRPDEFPRP | -0.0168
RRIRMRPPRLPRPRPRPDGMPRP | 1.73
RRIRKRPPRLPRPRPRPFYCPRP | -0.0322
RRIRRRPPRLPRPRPRPPCEPRP | 0.195
RRIRGRPPRLPRPRPRPVFLPRP | -0.0506
RRIRPRPPRLPRPRPRPNIGPRP | 0.0125
RRIRGRPPRLPRPRPRPRKHPRP | 0.632
RRIRSRPPRLPRPRPRPWPQPRP | 0.0548
RRIRIRPPRLPRPRPRPFWAPRP | -0.0374
RRIRCRPPRLPRPRPRPGQQPRP | 0.0269
RRIRYRPPRLPRPRPRPRYIPRP | -0.397
RRIRFRPPRLPRPRPRPLCPPRP | 0.016
RRIRHRPPRLPRPRPRPEDYPRP | 0.0112
RRIRHRPPRLPRPRPRPKAHPRP | -0.145
RRIRMRPPRLPRPRPRPMRTPRP | 0.502
RRIRWRPPRLPRPRPRPYHFPRP | 0.0137
RRIRWRPPRLPRPRPRPAKTPRP | 0.0165
RRIRLRPPRLPRPRPRPHAIPRP | -0.346
RRIRPRPPRLPRPRPRPRNMPRP | -0.126
RRIRLRPPRLPRPRPRPPYRPRP | -0.0286
RRIRGRPPRLPRPRPRPYAMPRP | 0.451
RRIRNRPPRLPRPRPRPMRMPRP | -0.00372

Sequence | shrunken log2 fold change
RRIRFRPPRLPRPRPRPHYIPRP | -0.0793
RRIRYRPPRLPRPRPRPLENPRP | -0.0143
RRIRMRPPRLPRPRPRPLLHPRP | 0.228
RRIRTRPPRLPRPRPRPEVQPRP | 0.0183
RRIRDRPPRLPRPRPRPIIYPRP | -0.313
RRIRLRPPRLPRPRPRPEKLPRP | -0.00411
RRIRGRPPRLPRPRPRPEVCPRP | 0.955
RRIRCRPPRLPRPRPRPRQVPRP | 0.184
RRIRMRPPRLPRPRPRPNSFPRP | -0.298
RRIRSRPPRLPRPRPRPHLIPRP | -0.303
RRIRNRPPRLPRPRPRPRPIPRP | 0.333
RRIRYRPPRLPRPRPRPYKNPRP | -1.42
RRIRRRPPRLPRPRPRPLFTPRP | 1.61
RRIRNRPPRLPRPRPRPMHAPRP | 0.0438
RRIRNRPPRLPRPRPRPGWAPRP | 0.135
RRIRCRPPRLPRPRPRPCYLPRP | -0.684
RRIRGRPPRLPRPRPRPPEVPRP | 1.02
RRIRIRPPRLPRPRPRPFAVPRP | 0.0425
RRIRFRPPRLPRPRPRPLKPPRP | -0.178
RRIRERPPRLPRPRPRPSGRPRP | 0.226
RRIRDRPPRLPRPRPRPRYFPRP | 0.242
RRIRHRPPRLPRPRPRPVINPRP | -0.242
RRIRARPPRLPRPRPRPWEIPRP | -0.0378
RRIRTRPPRLPRPRPRPPDWPRP | 0.705
RRIRIRPPRLPRPRPRPGLNPRP | 1

Sequence | shrunken log2 fold change
RRIRARPPRLPRPRPRPVPFPRP | 0.0816
RRIRARPPRLPRPRPRPSPPPRP | 0.67
RRIRARPPRLPRPRPRPRTCPRP | 0.181
RRIRERPPRLPRPRPRPACLPRP | -0.0938
RRIRLRPPRLPRPRPRPQCHPRP | 0.0598
RRIRQRPPRLPRPRPRPPCGPRP | 0.184
RRIRRRPPRLPRPRPRPDPAPRP | 1.18
RRIRKRPPRLPRPRPRPFVPPRP | -0.297
RRIRFRPPRLPRPRPRPAASPRP | 0.0986
RRIRHRPPRLPRPRPRPLDHPRP | -0.34
RRIRFRPPRLPRPRPRPMSIPRP | -0.354
RRIRYRPPRLPRPRPRPCLQPRP | -0.00663
RRIRNRPPRLPRPRPRPWSYPRP | -0.0175
RRIRIRPPRLPRPRPRPGKEPRP | -0.0221
RRIRVRPPRLPRPRPRPGVSPRP | -0.141
RRIRNRPPRLPRPRPRPQDAPRP | -0.131
RRIRPRPPRLPRPRPRPWHYPRP | 0.0497
RRIRARPPRLPRPRPRPHSMPRP | 0.104
RRIRCRPPRLPRPRPRPWWSPRP | 0.119
RRIRPRPPRLPRPRPRPRFPPRP | 0.233
RRIRCRPPRLPRPRPRPVYSPRP | -0.156
RRIRKRPPRLPRPRPRPRVGPRP | 0.279
RRIRMRPPRLPRPRPRPYPKPRP | 0.0427
RRIRDRPPRLPRPRPRPHYLPRP | -0.159
RRIRTRPPRLPRPRPRPEPAPRP | 0.763

Sequence | shrunken log2 fold change
RRIRMRPPRLPRPRPRPCAKPRP | 0.207
RRIRYRPPRLPRPRPRPYAGPRP | -0.00131
RRIRGRPPRLPRPRPRPHCCPRP | 0.0841
RRIRGRPPRLPRPRPRPILCPRP | 0.174
RRIRWRPPRLPRPRPRPFQGPRP | -0.249
RRIRRRPPRLPRPRPRPRVTPRP | 0.766
RRIRERPPRLPRPRPRPFQHPRP | -0.252
RRIRSRPPRLPRPRPRPAMKPRP | 0.00274
RRIRARPPRLPRPRPRPESYPRP | 1.13
RRIRHRPPRLPRPRPRPAELPRP | -0.00261
RRIRSRPPRLPRPRPRPAKTPRP | 0.111
RRIRMRPPRLPRPRPRPRMKPRP | 0.447
RRIRDRPPRLPRPRPRPNIKPRP | -0.384
RRIRDRPPRLPRPRPRPPRRPRP | 0.635
RRIRIRPPRLPRPRPRPLFLPRP | -0.653
RRIRGRPPRLPRPRPRPGWSPRP | 0.758
RRIRSRPPRLPRPRPRPMQFPRP | 0.0683
RRIRDRPPRLPRPRPRPPPQPRP | 0.775
RRIRVRPPRLPRPRPRPSKEPRP | -0.263
RRIRPRPPRLPRPRPRPRQMPRP | 0.184
RRIRPRPPRLPRPRPRPWEHPRP | -0.0525
RRIRIRPPRLPRPRPRPHLAPRP | 0.0435
RRIRIRPPRLPRPRPRPHAHPRP | -0.554
RRIRRRPPRLPRPRPRPFMWPRP | 0.00755
RRIRVRPPRLPRPRPRPNAQPRP | 0.24

Sequence | shrunken log2 fold change
RRIRVRPPRLPRPRPRPQDNPRP | -1.05
RRIRQRPPRLPRPRPRPHNQPRP | -0.644
RRIRIRPPRLPRPRPRPGWPPRP | 0.353
RRIRLRPPRLPRPRPRPMQKPRP | -0.0247
RRIRNRPPRLPRPRPRPVVKPRP | 0.0106
RRIRDRPPRLPRPRPRPDTLPRP | 0.125
RRIRYRPPRLPRPRPRPQMGPRP | 0.0669
RRIRYRPPRLPRPRPRPVVKPRP | -0.0513
RRIRPRPPRLPRPRPRPGHCPRP | 0.0859
RRIRCRPPRLPRPRPRPLANPRP | 0.452
RRIRERPPRLPRPRPRPEGCPRP | -0.318
RRIRNRPPRLPRPRPRPPGCPRP | 0.109
RRIRGRPPRLPRPRPRPVGGPRP | 0.897
RRIRLRPPRLPRPRPRPQQRPRP | -0.299
RRIRQRPPRLPRPRPRPKKRPRP | 0.107
RRIRKRPPRLPRPRPRPTLPPRP | 0.878
RRIRTRPPRLPRPRPRPCPQPRP | -0.312
RRIRWRPPRLPRPRPRPDWGPRP | -0.0819
RRIRMRPPRLPRPRPRPHFDPRP | -0.0378
RRIRKRPPRLPRPRPRPYWRPRP | -0.426
RRIRLRPPRLPRPRPRPAQSPRP | 0.485
RRIRSRPPRLPRPRPRPLIRPRP | -0.196
RRIRSRPPRLPRPRPRPMADPRP | -0.0211
RRIRQRPPRLPRPRPRPMDTPRP | -0.031
RRIRMRPPRLPRPRPRPCGPPRP | 0.481
